{
  "source": "the Human Domainome abundance scans (Beltran et al. 2025)",
  "parents": {"B1": {"name": "Tumor protein p73, residues 487 to 549; numbered along this chain, O15350 (parent)", "chain": "YHADPSLVSFLTGLGCPNCIEYFTSQGLQSIYHLQNLTIEDLGALKIPEQYRMTIWRGLQDLK"}},
  "note": "± gives the uncertainty stated by the source.",
  "data": [
    {"variants_of": "B1", "experiment": "abundance fitness (aPCA) (normalised: wild type 0, dead -1); higher = more abundant; growth selection in yeast, the domain comes from the species named", "conditions": "Homo sapiens", "values": [
      {"variant": "YHADPSLVSFLTGLGCPNCIEYFTSQGLQSIYHLQNLTIEDLGALKIPEQYRMTIWRGCQDLK", "note": "[L59C]", "abundance fitness": "-0.106 ± 0.1"},
      {"variant": "YHADPSLVSFLTGLGCPNCIEYFTSQGLQSIYHLQNLTIEDLGALKIPEQYRMTIWRGGQDLK", "note": "[L59G]", "abundance fitness": "-0.538 ± 0.075"},
      {"variant": "YHADPSLVSFLTGLGCPNCIEYFTSQGLQSIYHLQNLTIEDLGALKIPEQYRMTIWRGAQDLK", "note": "[L59A]", "abundance fitness": "-0.054 ± 0.054"},
      {"variant": "YHADPSLVSFLTGLGCPNCIEYFTSQGLQSIYHLQNLTIEDLGALKIPEQYRMTIWRGEQDLK", "note": "[L59E]", "abundance fitness": "-0.95 ± 0.16"},
      {"variant": "YHADPSLVSFLTGLGCPNCIEYFTSQGLQSIYHLQNLTIEDLGALKIPEQYRMTIWRGFQDLK", "note": "[L59F]", "abundance fitness": "-0.065 ± 0.053"},
      {"variant": "YHADPSLVSFLTGLGCPNCCEYFTSQGLQSIYHLQNLTIEDLGALKIPEQYRMTIWRGLQDLK", "note": "[I20C]", "abundance fitness": "-0.074 ± 0.038"},
      {"variant": "YHADPSLVSFLTGVGCPNCIEYFTSQGLQSIYHLQNLTIEDLGALKIPEQYRMTIWRGLQDLK", "note": "[L14V]", "abundance fitness": "0.024 ± 0.031"},
      {"variant": "YHADPSLVSFLTGRGCPNCIEYFTSQGLQSIYHLQNLTIEDLGALKIPEQYRMTIWRGLQDLK", "note": "[L14R]", "abundance fitness": "-0.353 ± 0.038"},
      {"variant": "YHADPSLVSFLTGLGCPNCIEYFTSQGLQSIYHLQNLTIESLGALKIPEQYRMTIWRGLQDLK", "note": "[D41S]", "abundance fitness": "0 ± 0.031"},
      {"variant": "YHADPSLVSFLTGLGCPNCIEYFTSQGLQSIYHLQNLTIEYLGALKIPEQYRMTIWRGLQDLK", "note": "[D41Y]", "abundance fitness": "-0.45 ± 0.089"},
      {"variant": "YHADPSLVSFLTGLGCWNCIEYFTSQGLQSIYHLQNLTIEDLGALKIPEQYRMTIWRGLQDLK", "note": "[P17W]", "abundance fitness": "-0.14 ± 0.039"},
      {"variant": "YHADPSLVSFLTGLGCLNCIEYFTSQGLQSIYHLQNLTIEDLGALKIPEQYRMTIWRGLQDLK", "note": "[P17L]", "abundance fitness": "0.023 ± 0.034"},
      {"variant": "YHADPSLVSFLTGLGCDNCIEYFTSQGLQSIYHLQNLTIEDLGALKIPEQYRMTIWRGLQDLK", "note": "[P17D]", "abundance fitness": "-0.044 ± 0.051"},
      {"variant": "YHADPSLVSFLTGLGCPNCIEYFTSQGLQSIYHLQNLTIEDLGALKIPTQYRMTIWRGLQDLK", "note": "[E49T]", "abundance fitness": "-0.036 ± 0.041"},
      {"variant": "YHADPSLVSFLTGLGCPNCIEYFTSQGLQSIYHLQNLTIEDLGALKIPYQYRMTIWRGLQDLK", "note": "[E49Y]", "abundance fitness": "-0.181 ± 0.38"},
      {"variant": "YHADPSLVSFLTGLGCPNCIEYFTSQGLQWIYHLQNLTIEDLGALKIPEQYRMTIWRGLQDLK", "note": "[S30W]", "abundance fitness": "-0.817 ± 0.085"},
      {"variant": "YHADLSLVSFLTGLGCPNCIEYFTSQGLQSIYHLQNLTIEDLGALKIPEQYRMTIWRGLQDLK", "note": "[P5L]", "abundance fitness": "0.073 ± 0.035"},
      {"variant": "YYADPSLVSFLTGLGCPNCIEYFTSQGLQSIYHLQNLTIEDLGALKIPEQYRMTIWRGLQDLK", "note": "[H2Y]", "abundance fitness": "-0.031 ± 0.11"},
      {"variant": "YHADPSKVSFLTGLGCPNCIEYFTSQGLQSIYHLQNLTIEDLGALKIPEQYRMTIWRGLQDLK", "note": "[L7K]", "abundance fitness": "-0.984 ± 0.16"},
      {"variant": "YHADPSFVSFLTGLGCPNCIEYFTSQGLQSIYHLQNLTIEDLGALKIPEQYRMTIWRGLQDLK", "note": "[L7F]", "abundance fitness": "-0.266 ± 0.073"},
      {"variant": "YHADPSAVSFLTGLGCPNCIEYFTSQGLQSIYHLQNLTIEDLGALKIPEQYRMTIWRGLQDLK", "note": "[L7A]", "abundance fitness": "-0.257 ± 0.046"},
      {"variant": "YHADPSLVSFLRGLGCPNCIEYFTSQGLQSIYHLQNLTIEDLGALKIPEQYRMTIWRGLQDLK", "note": "[T12R]", "abundance fitness": "0.058 ± 0.028"},
      {"variant": "YHADPSLVSFLMGLGCPNCIEYFTSQGLQSIYHLQNLTIEDLGALKIPEQYRMTIWRGLQDLK", "note": "[T12M]", "abundance fitness": "0.021 ± 0.045"},
      {"variant": "YHADPSLVSFLTGLGCPNCIEYFTSQGLQSIYHLQNLTIEDLGALKIPEQARMTIWRGLQDLK", "note": "[Y51A]", "abundance fitness": "-0.005 ± 0.076"},
      {"variant": "YHADPSLVSFLTGLGCPNCIEYFTSQGLQSIYHLQNLTIEDLGALKIPEQKRMTIWRGLQDLK", "note": "[Y51K]", "abundance fitness": "0.034 ± 0.1"},
      {"variant": "YHADPSLVSFLTGLGCPNCIEYFTSQGLQSIYHLQNLTIEDLGALKIPEQYRMTIWRGLQDVK", "note": "[L62V]", "abundance fitness": "-0.007 ± 0.033"},
      {"variant": "YHADPSLVSFLTGLGCPNCIEYFTSQGLQSIYHLKNLTIEDLGALKIPEQYRMTIWRGLQDLK", "note": "[Q35K]", "abundance fitness": "0.078 ± 0.057"},
      {"variant": "YHADPSLVSFLTGLGCPNCIEHFTSQGLQSIYHLQNLTIEDLGALKIPEQYRMTIWRGLQDLK", "note": "[Y22H]", "abundance fitness": "0.031 ± 0.07"},
      {"variant": "YHADPSLVSFLTGLGCPNCIEGFTSQGLQSIYHLQNLTIEDLGALKIPEQYRMTIWRGLQDLK", "note": "[Y22G]", "abundance fitness": "-0.173 ± 0.034"},
      {"variant": "YHADPSLVSFLTGLGCPNCIELFTSQGLQSIYHLQNLTIEDLGALKIPEQYRMTIWRGLQDLK", "note": "[Y22L]", "abundance fitness": "0.009 ± 0.03"},
      {"variant": "YHADPSLVSFLTGLGCPNCIEYFKSQGLQSIYHLQNLTIEDLGALKIPEQYRMTIWRGLQDLK", "note": "[T24K]", "abundance fitness": "-0.013 ± 0.056"},
      {"variant": "YHADPSLVSFLTGLGCPNCIEYFTSQGLQSICHLQNLTIEDLGALKIPEQYRMTIWRGLQDLK", "note": "[Y32C]", "abundance fitness": "0.112 ± 0.054"},
      {"variant": "YHADPSLVSFLTGLGCPNCIEYFTSQGSQSIYHLQNLTIEDLGALKIPEQYRMTIWRGLQDLK", "note": "[L28S]", "abundance fitness": "-0.079 ± 0.035"},
      {"variant": "YHADPSLVSFLTGLGCPNCIEYFTSQGIQSIYHLQNLTIEDLGALKIPEQYRMTIWRGLQDLK", "note": "[L28I]", "abundance fitness": "-0.041 ± 0.065"},
      {"variant": "YHADPSLFSFLTGLGCPNCIEYFTSQGLQSIYHLQNLTIEDLGALKIPEQYRMTIWRGLQDLK", "note": "[V8F]", "abundance fitness": "-0.045 ± 0.079"},
      {"variant": "YHADPSLVSFLTGLRCPNCIEYFTSQGLQSIYHLQNLTIEDLGALKIPEQYRMTIWRGLQDLK", "note": "[G15R]", "abundance fitness": "-0.153 ± 0.034"},
      {"variant": "YHADPSLVSFLTGLGCPNCIEYFTSQGLQSIYHLQNLTIEDWGALKIPEQYRMTIWRGLQDLK", "note": "[L42W]", "abundance fitness": "0.072 ± 0.033"},
      {"variant": "YHADPSLVSFLTGLGCPNCIEYFTSQGLQSIYHLQNLTIEDVGALKIPEQYRMTIWRGLQDLK", "note": "[L42V]", "abundance fitness": "-0.127 ± 0.028"},
      {"variant": "YHADPSLVSFLTGLGCPNCIEYFTSQGLISIYHLQNLTIEDLGALKIPEQYRMTIWRGLQDLK", "note": "[Q29I]", "abundance fitness": "0.142 ± 0.06"},
      {"variant": "YHADPSLVSFLTGLGCPNCIEYFTSQGLDSIYHLQNLTIEDLGALKIPEQYRMTIWRGLQDLK", "note": "[Q29D]", "abundance fitness": "0.089 ± 0.089"},
      {"variant": "YHADPSLVSFLTGLGCPNCIEYFTSQGLSSIYHLQNLTIEDLGALKIPEQYRMTIWRGLQDLK", "note": "[Q29S]", "abundance fitness": "0.053 ± 0.033"},
      {"variant": "YHADPSLVSFLTGLGCPNCIEYFTSQGLQSIYHLQNLTIEDLGALKIPEQYRMTIWRGLQDLR", "note": "[K63R]", "abundance fitness": "-0.159 ± 0.14"}
    ]}
  ]
}
